Our source for the percent decrease of SsaV-6×His co-immunoprecipitated with SsaL-3Flag in the absence of SsaP (ΔssaP) and percent decrease of SsaV-6×His co-immunoprecipitated with SsaL-3Flag in the absence of normally cleaved SsaU (ΔssaU expressing SsaU^N262A) values is article PMC6168863.

This assay has as its target SsaL-3Flag (Salmonella enterica serovar Typhimurium (strain 12023)). Nature of the assay: co-IP; Bacteria grown 6 h in MgM-MES at pH 5.0; lysate in PBS, 1 mM PMSF, 0.5% Triton X-100; SsaL-3Flag precipitated with anti-Flag M2 affinity agarose for 3 h at 4°C and eluted with 3Flag peptide; SsaV detected with anti-His antibody. Strains: wt background, ssaV^V632D, ΔssaP (with or without pssaP), and ΔssaU expressing SsaU^N262A.

Sequence of SsaV-6×His (P74856 whole entry): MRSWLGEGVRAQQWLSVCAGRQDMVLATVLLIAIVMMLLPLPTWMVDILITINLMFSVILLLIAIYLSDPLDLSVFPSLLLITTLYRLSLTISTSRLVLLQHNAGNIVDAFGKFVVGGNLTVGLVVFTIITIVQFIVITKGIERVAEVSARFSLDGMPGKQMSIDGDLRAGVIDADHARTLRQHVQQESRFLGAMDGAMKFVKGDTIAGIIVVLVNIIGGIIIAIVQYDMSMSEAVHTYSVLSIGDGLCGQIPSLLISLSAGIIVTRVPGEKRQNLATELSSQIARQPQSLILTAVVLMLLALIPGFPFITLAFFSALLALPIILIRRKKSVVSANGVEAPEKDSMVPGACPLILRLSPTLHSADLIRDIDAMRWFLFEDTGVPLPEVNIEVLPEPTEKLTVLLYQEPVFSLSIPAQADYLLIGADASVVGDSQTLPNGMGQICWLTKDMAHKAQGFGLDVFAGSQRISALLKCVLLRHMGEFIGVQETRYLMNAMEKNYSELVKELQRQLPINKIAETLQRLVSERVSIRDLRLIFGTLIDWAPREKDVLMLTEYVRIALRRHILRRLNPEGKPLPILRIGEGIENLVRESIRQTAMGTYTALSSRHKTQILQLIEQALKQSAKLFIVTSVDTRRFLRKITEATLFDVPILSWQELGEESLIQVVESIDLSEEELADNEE

“SsaV-6×His (from UniProt P74856 1-681) (natural protein)” gave a percent decrease of SsaV-6×His co-immunoprecipitated with SsaL-3Flag in the absence of SsaP (ΔssaP) of 43.6% and a percent decrease of SsaV-6×His co-immunoprecipitated with SsaL-3Flag in the absence of normally cleaved SsaU (ΔssaU expressing SsaU^N262A) of 46.2%.
